Source: paper PMC7515730

T1: CSTF2 (CstF-64) RRM wild type (Homo sapiens, UniProt P33240 1-107)
T1 sequence: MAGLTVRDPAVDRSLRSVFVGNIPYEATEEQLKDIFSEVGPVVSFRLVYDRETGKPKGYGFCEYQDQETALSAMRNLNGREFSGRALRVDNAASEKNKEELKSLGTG

T2: CSTF2 D50A RRM (Homo sapiens, UniProt P33240 1-107, D50A)
T2 sequence: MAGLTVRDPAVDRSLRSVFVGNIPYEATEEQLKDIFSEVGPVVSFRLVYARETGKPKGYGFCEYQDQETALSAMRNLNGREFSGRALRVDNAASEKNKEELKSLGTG


Columns and labels:
[1] = target: T1, CSTF2 (CstF-64) RRM wild type; test: fluorescence polarization
CSTF2 D50A RRM [2] = target: T2, CSTF2 D50A RRM; test: fluorescence polarization
[3] = target: T1, CSTF2 (CstF-64) RRM wild type; test: ITC
CSTF2 D50A RRM [4] = target: T2, CSTF2 D50A RRM; test: ITC

Binder | Kd [1] [nM] | Kd (CSTF2 D50A RRM [2]) [nM] | Kd [3] [nM] | Kd (CSTF2 D50A RRM [4]) [nM]
AUUUUAUGUUUCAGGU (ssRNA) [SVL RNA, 3'-fluorescein] | 1450 ± 70 |  |  | 
GUGUGUGUGUGUGUGU (ssRNA) [(GU)8 RNA, 3'-fluorescein] | 260 ± 20 | 170 ± 10 |  | 
AUUUUAUGUUUCAGGU (ssRNA) [SVL RNA, unlabeled] |  |  | 1520 ± 170 | 698 ± 60
